Test results reported in paper PMC4338161.

Molecular target: BK α W176C (S2–S3 loop) in the pWTb background (mouse)
Assay: cross-linking

extent of cross-linking: 80%
Substance: BK β1 subunit G12C (TM1 flank) in the pWT β1 background (from UniProt Q16558-1 1-191) (natural protein)
